Laboratory results as given in patent US20210032331A1 (PHANES THERAPEUTICS, published 2021).

T1: human LAG-3(ECD)-mFc (human, UniProt P18627 23-450)
T1 construct: also called hLAG3-mFc; human LAG-3 extracellular domain (ECD) fused to mouse Fc; not shown: mouse Fc
T1 sequence: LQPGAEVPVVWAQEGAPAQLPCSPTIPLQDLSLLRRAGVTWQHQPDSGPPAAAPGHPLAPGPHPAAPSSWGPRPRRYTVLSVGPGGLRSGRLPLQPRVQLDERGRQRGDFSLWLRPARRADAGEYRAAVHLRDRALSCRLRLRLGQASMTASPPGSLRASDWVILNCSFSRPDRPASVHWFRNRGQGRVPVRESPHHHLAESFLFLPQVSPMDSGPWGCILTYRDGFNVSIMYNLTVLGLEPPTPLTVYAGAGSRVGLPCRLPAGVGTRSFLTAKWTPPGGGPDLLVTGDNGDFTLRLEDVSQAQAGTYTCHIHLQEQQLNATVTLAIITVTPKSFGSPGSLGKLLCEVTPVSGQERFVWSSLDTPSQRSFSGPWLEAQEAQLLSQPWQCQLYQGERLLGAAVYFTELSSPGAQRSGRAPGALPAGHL


These binders were tested against T1, human LAG-3(ECD)-mFc (assay: FACS competition: mAb preincubated with human LAG-3(ECD)-mFc (1 ug/ml); binding to MHC class II on Daudi cells detected with anti-mouse Fc-PE).
Procedure: Human Daudi cells were cultured in RPMI+10% FBS. Human LAG-3(ECD)-mFc protein (human LAG-3 ECD fused to mouse Fc) at 1 μg/ml final concentration was incubated with purified mouse, humanized, or chimeric anti-LAG-3 mAbs at various concentrations for 15 minutes at 4° C. The mixture was then added to 100,000 human Daudi cells in a 96-well round bottom plate, mixed and incubated for 15 minutes on ice. Cells were then centrifuged at 1,000 rpm for 5 minutes and washed with FACS buffer (PBS supplemented with 5% BSA) three times. The cells were then incubated with PE-conjugated goat anti-mouse Fc polyclonal antibodies on ice for 15 minutes, washed with FACS buffer three times and then resuspended in FACS buffer containing 0.1 μg/ml PI (propidine iodine) for live/dead cell gating. Cells were then run through the FACS Caliber instrument and the data were analyzed by the Flowjo software. Results of the inhibition of LAG-3 binding to Daudi cells by chimeric mAbs B1C, B3C, B4C, BSC, B9C, and B11C are shown in FIG. 4B.
The mouse anti-hLAG-3 mAbs B5 and B7 were humanized to reduce the potential of immunogenicity when used in human patients. The CDRs in both the heavy and light chains of the mouse mAb were grafted into human framework that have the highest possibility of maintaining the proper structure required for antigen binding. Backmutations from human reside to mouse residue were designed when necessary. The sequences of the humanized VH and VL regions are shown in Table 11 and Table 12, respectively. The humanized VH and VL regions were fused to the constant regions of human IgG4 heavy chain and kappa light chain, respectively, to generate humanized mAbs. Constructs corresponding to the mAb sequences were used for transient transfection in 293E cells. Purified mAbs were analyzed for their ability to inhibit hLAG-3 binding to MHC class II molecules on Daudi cells.

Binder | IC50
B7(H4L5) (antibody, V domains shown, Humanized VH and VL fused to constant regions of human IgG4 heavy chain and kappa light chain; also called humanized B7 with B7/H4 heavy chain and B7/L5 light chain) VH: EVQLVQSGAEVKKPGASVKVSCKASGYTFSDYNLNWVRQAPGQTLEWMGLINLDSAATVYNQKFKGKATMTRDQSTSTAYMELSSLRSEDTAVYYCASYDYWGQGTLVTVSS VL: DIQMTQSPSSLSASVGDRVTITCRASQDISHYLNWFQQKPGKAPKLLIYETSTLDFGVPSRFSGSGSGTDFTFTISSLQPEDIATYYCLQYATYPLTFGGGTKVEIK | 1.35 nM
B7(H5L5) (antibody, V domains shown, Humanized VH and VL fused to constant regions of human IgG4 heavy chain and kappa light chain; also called humanized B7 with B7/H5 heavy chain and B7/L5 light chain) VH: EVQLVQSGAEVKKPGASVKVSCKASGYSFSDYNLNWVRQAPGQTLEWMGLINLDSAATVYNQKFKGKATMTIDQSTSTAYMELSSLRSEDTAVYYCASYDYWGQGTLVTVSS VL: DIQMTQSPSSLSASVGDRVTITCRASQDISHYLNWFQQKPGKAPKLLIYETSTLDFGVPSRFSGSGSGTDFTFTISSLQPEDIATYYCLQYATYPLTFGGGTKVEIK | 0.28 nM
B7(H6L8) (antibody, V domains shown, Humanized VH and VL fused to constant regions of human IgG4 heavy chain and kappa light chain; also called humanized B7 with B7/H6 heavy chain and B7/L8 light chain) VH: EFQLVQSGAEVKKPGASVKVSCKASGYSFSDYNLNWVRQAPGQTLEWMGLINLDSAATVYNQKFKGKATMTIDQSTSTAYMELSSLRSEDTAVYYCASYDYWGQGTLVTVSS VL: DIQMTQSPSSLSASVGDRVTITCRASQDISHYLNWFQQKPGKAPKRLIYETSTLDFGVPSRFSGSGSGTDFTFTISSLQPEDIATYYCLQYATYPLTFGGGTKVEIK | 1.19 nM
B7(H1L8) (antibody, V domains shown, Humanized VH and VL fused to constant regions of human IgG4 heavy chain and kappa light chain; also called humanized B7 with B7/H1 heavy chain and B7/L8 light chain) VH: EVQLVQSGAEVKKPGASVKVSCKASGYTFSDYNLNWVRQAPGQGLEWMGLINLDSAATVYNQKFKGRVTMTRDTSTSTVYMELSSLRSEDTAVYYCASYDYWGQGTLVTVSS VL: DIQMTQSPSSLSASVGDRVTITCRASQDISHYLNWFQQKPGKAPKRLIYETSTLDFGVPSRFSGSGSGTDFTFTISSLQPEDIATYYCLQYATYPLTFGGGTKVEIK | 0.9 nM
B7(H3L8) (antibody, V domains shown, Humanized VH and VL fused to constant regions of human IgG4 heavy chain and kappa light chain; also called humanized B7 with B7/H3 heavy chain and B7/L8 light chain) VH: EVQLVQSGAEVKKPGASVKVSCKASGYTFSDYNLNWVRQAPGQGLEWMGLINLDSAATVYNQKFKGKATMTRDTSTSTVYMELSSLRSEDTAVYYCASYDYWGQGTLVTVSS VL: DIQMTQSPSSLSASVGDRVTITCRASQDISHYLNWFQQKPGKAPKRLIYETSTLDFGVPSRFSGSGSGTDFTFTISSLQPEDIATYYCLQYATYPLTFGGGTKVEIK | 0.66 nM
B7(H5L8) (antibody, V domains shown, Humanized VH and VL fused to constant regions of human IgG4 heavy chain and kappa light chain; also called humanized B7 with B7/H5 heavy chain and B7/L8 light chain) VH: EVQLVQSGAEVKKPGASVKVSCKASGYSFSDYNLNWVRQAPGQTLEWMGLINLDSAATVYNQKFKGKATMTIDQSTSTAYMELSSLRSEDTAVYYCASYDYWGQGTLVTVSS VL: DIQMTQSPSSLSASVGDRVTITCRASQDISHYLNWFQQKPGKAPKRLIYETSTLDFGVPSRFSGSGSGTDFTFTISSLQPEDIATYYCLQYATYPLTFGGGTKVEIK | 0.72 nM
B7(H2L5) (antibody, V domains shown, Humanized VH and VL fused to constant regions of human IgG4 heavy chain and kappa light chain; also called humanized B7 with B7/H2 heavy chain and B7/L5 light chain) VH: EVQLVQSGAEVKKPGASVKVSCKASGYTFSDYNLNWVRQAPGQTLEWMGLINLDSAATVYNQKFKGRVTMTRDTSTSTVYMELSSLRSEDTAVYYCASYDYWGQGTLVTVSS VL: DIQMTQSPSSLSASVGDRVTITCRASQDISHYLNWFQQKPGKAPKLLIYETSTLDFGVPSRFSGSGSGTDFTFTISSLQPEDIATYYCLQYATYPLTFGGGTKVEIK | 1.59 nM
B7(H2L8) (antibody, V domains shown, Humanized VH and VL fused to constant regions of human IgG4 heavy chain and kappa light chain; also called humanized B7 with B7/H2 heavy chain and B7/L8 light chain) VH: EVQLVQSGAEVKKPGASVKVSCKASGYTFSDYNLNWVRQAPGQTLEWMGLINLDSAATVYNQKFKGRVTMTRDTSTSTVYMELSSLRSEDTAVYYCASYDYWGQGTLVTVSS VL: DIQMTQSPSSLSASVGDRVTITCRASQDISHYLNWFQQKPGKAPKRLIYETSTLDFGVPSRFSGSGSGTDFTFTISSLQPEDIATYYCLQYATYPLTFGGGTKVEIK | 0.74 nM
B7(H1L5) (antibody, V domains shown, Humanized VH and VL fused to constant regions of human IgG4 heavy chain and kappa light chain; also called humanized B7 with B7/H1 heavy chain and B7/L5 light chain) VH: EVQLVQSGAEVKKPGASVKVSCKASGYTFSDYNLNWVRQAPGQGLEWMGLINLDSAATVYNQKFKGRVTMTRDTSTSTVYMELSSLRSEDTAVYYCASYDYWGQGTLVTVSS VL: DIQMTQSPSSLSASVGDRVTITCRASQDISHYLNWFQQKPGKAPKLLIYETSTLDFGVPSRFSGSGSGTDFTFTISSLQPEDIATYYCLQYATYPLTFGGGTKVEIK | 1.59 nM
B7(H6L5) (antibody, V domains shown, Humanized VH and VL fused to constant regions of human IgG4 heavy chain and kappa light chain; also called humanized B7 with B7/H6 heavy chain and B7/L5 light chain) VH: EFQLVQSGAEVKKPGASVKVSCKASGYSFSDYNLNWVRQAPGQTLEWMGLINLDSAATVYNQKFKGKATMTIDQSTSTAYMELSSLRSEDTAVYYCASYDYWGQGTLVTVSS VL: DIQMTQSPSSLSASVGDRVTITCRASQDISHYLNWFQQKPGKAPKLLIYETSTLDFGVPSRFSGSGSGTDFTFTISSLQPEDIATYYCLQYATYPLTFGGGTKVEIK | 0.78 nM
B7(H4L8) (antibody, V domains shown, Humanized VH and VL fused to constant regions of human IgG4 heavy chain and kappa light chain; also called humanized B7 with B7/H4 heavy chain and B7/L8 light chain) VH: EVQLVQSGAEVKKPGASVKVSCKASGYTFSDYNLNWVRQAPGQTLEWMGLINLDSAATVYNQKFKGKATMTRDQSTSTAYMELSSLRSEDTAVYYCASYDYWGQGTLVTVSS VL: DIQMTQSPSSLSASVGDRVTITCRASQDISHYLNWFQQKPGKAPKRLIYETSTLDFGVPSRFSGSGSGTDFTFTISSLQPEDIATYYCLQYATYPLTFGGGTKVEIK | 0.7 nM
B7(H3L5) (antibody, V domains shown, Humanized VH and VL fused to constant regions of human IgG4 heavy chain and kappa light chain; also called humanized B7 with B7/H3 heavy chain and B7/L5 light chain) VH: EVQLVQSGAEVKKPGASVKVSCKASGYTFSDYNLNWVRQAPGQGLEWMGLINLDSAATVYNQKFKGKATMTRDTSTSTVYMELSSLRSEDTAVYYCASYDYWGQGTLVTVSS VL: DIQMTQSPSSLSASVGDRVTITCRASQDISHYLNWFQQKPGKAPKLLIYETSTLDFGVPSRFSGSGSGTDFTFTISSLQPEDIATYYCLQYATYPLTFGGGTKVEIK | 4.18 nM
B5(H3L2) (antibody, V domains shown, Humanized VH and VL fused to constant regions of human IgG4 heavy chain and kappa light chain; also called humanized B5 with B5/H3 heavy chain and B5/L2 light chain) VH: QVQLVQSGAVVKKPGASVKMSCKASGYTFTGYYMNWMRQAPGQSLEWLAVINPYNGDTAYNRKFKGRATLTVDKSTSTAYMELSSLRSEDTAVYYCARDDGYHVRFFDVWGQGTTVTVSS VL: DIQMTQSPSSLSASVGDRVTITCRSSQDISDYLSWLQQKPGGAIKSLIYSTSTLDSGVPSRFSGSRSGTDFTLTISSLQPEDFATYYCLQYASSPPTFGGGTKVEIK | 2.85 nM
B5(H3L1) (antibody, V domains shown, Humanized VH and VL fused to constant regions of human IgG4 heavy chain and kappa light chain; also called humanized B5 with B5/H3 heavy chain and B5/L1 light chain) VH: QVQLVQSGAVVKKPGASVKMSCKASGYTFTGYYMNWMRQAPGQSLEWLAVINPYNGDTAYNRKFKGRATLTVDKSTSTAYMELSSLRSEDTAVYYCARDDGYHVRFFDVWGQGTTVTVSS VL: DIQMTQSPSSLSASVGDRVTITCRSSQDISDYLSWLQQKPGGAPKSLIYSTSTLDSGVPSRFSGSRSGTDFTLTISSLQPEDFATYYCLQYASSPPTFGGGTKVEIK | 6.77 nM
B5(H3L3) (antibody, V domains shown, Humanized VH and VL fused to constant regions of human IgG4 heavy chain and kappa light chain; also called humanized B5 with B5/H3 heavy chain and B5/L3 light chain) VH: QVQLVQSGAVVKKPGASVKMSCKASGYTFTGYYMNWMRQAPGQSLEWLAVINPYNGDTAYNRKFKGRATLTVDKSTSTAYMELSSLRSEDTAVYYCARDDGYHVRFFDVWGQGTTVTVSS VL: DIQMTQSPSSLSASVGDRVTITCRSSQDISDYLSWLQQKPGGAIKSLIYSTSTLDSGVPSRFSGSRSGTDYTLTISSLQPEDFATYYCLQYASSPPTFGGGTKVEIK | 2.91 nM
B5(H4L1) (antibody, V domains shown, Humanized VH and VL fused to constant regions of human IgG4 heavy chain and kappa light chain; also called humanized B5 with B5/H4 heavy chain and B5/L1 light chain) VH: QVQLRQSGAVVKKPGASVKMSCKASGYTFTGYYMNWMRQAHGQSLEWLAVINPYNGDTAYNRKFKGRATLTVDKSTSTAYMELSSLRSEDTAVYYCVRDDGYHVRFFDVWGQGTTVTVSS VL: DIQMTQSPSSLSASVGDRVTITCRSSQDISDYLSWLQQKPGGAPKSLIYSTSTLDSGVPSRFSGSRSGTDFTLTISSLQPEDFATYYCLQYASSPPTFGGGTKVEIK | 5.32 nM
B5(H1L4) (antibody, V domains shown, Humanized VH and VL fused to constant regions of human IgG4 heavy chain and kappa light chain; also called B5(HIL4); humanized B5 with B5/H1 heavy chain and B5/L4 light chain) VH: QVQLVQSGAEVKKPGASVKMSCKASGYTFTGYYMNWVRQAPGQSLEWLGVINPYNGDTAYNRKFKGRVTLTVDKSTSTVYMELSSLRSEDTAVYYCARDDGYHVRFFDVWGQGTTVTVSS VL: DIQMTQSPSSLSASVGDRVTITCRSSQDISDYLSWLQQKPGGAIKRLIYSTSTLDSGVPKRFSGSRSGSDYTLTISSLQPEDFATYYCLQYASSPPTFGGGTKVEIK | 0.98 nM
B5(H2L2) (antibody, V domains shown, Humanized VH and VL fused to constant regions of human IgG4 heavy chain and kappa light chain; also called humanized B5 with B5/H2 heavy chain and B5/L2 light chain) VH: QVQLVQSGAEVKKPGASVKMSCKASGYTFTGYYMNWMRQAPGQSLEWLGVINPYNGDTAYNRKFKGRVTLTVDKSTSTAYMELSSLRSEDTAVYYCARDDGYHVRFFDVWGQGTTVTVSS VL: DIQMTQSPSSLSASVGDRVTITCRSSQDISDYLSWLQQKPGGAIKSLIYSTSTLDSGVPSRFSGSRSGTDFTLTISSLQPEDFATYYCLQYASSPPTFGGGTKVEIK | 1.59 nM
